B1: Protein ENL (Homo sapiens), Q03111 (parent)
chain: MDNQCTVQVRLELGHRAQLRKKPTTEGFTHDWMVFVRGPEQCDIQHFVEKVVFWLHDSFPKPRRVCKEPPYKVEESGYAGFIMPIEVHFKNKEEPRKVCFTYDLFLNLEGNPPVNHLRCEKLTFNNPTTEFRYKLLRAGGVMVMPEGADTVSRPSPDYPMLPTIPLSAFSDPKKTKPSHGSKDANKESSKTSKPHKVTKEHRERPRKDSESKSSSKELEREQAKSSKDTSRKLGEGRLPKEEKAPPPKAAFKEPKMALKETKLESTSPKGGPPPPPPPPPRASSKRPATADSPKPSAKKQKKSSSKGSRSAPGTSPRTSSSSSFSDKKPAKDKSSTRGEKVKAESEPREAKKALEVEESNSEDEASFKSESAQSSPSNSSSSSDSSSDSDFEPSQNHSQGPLRSMVEDLQSEESDEDDSSSGEEAAGKTNPGRDSRLSFSDSESDNSADSSLPSREPPPPQKPPPPNSKVSGRRSPESCSKPEKILKKGTYDKAYTDELVELHRRLMALRERNVLQQIVNLIEETGHFNVTNTTFDFDLFSLDETTVRKLQSCLEAVAT
B2: Protein AF-9 (Homo sapiens), P42568 (parent)
chain: MASSCAVQVKLELGHRAQVRKKPTVEGFTHDWMVFVRGPEHSNIQHFVEKVVFHLHESFPRPKRVCKDPPYKVEESGYAGFILPIEVYFKNKEEPRKVRFDYDLFLHLEGHPPVNHLRCEKLTFNNPTEDFRRKLLKAGGDPNRSIHTSSSSSSSSSSSSSSSSSSSSSSSSSSSSSSSSSSSSSSSSSSTSFSKPHKLMKEHKEKPSKDSREHKSAFKEPSRDHNKSSKESSKKPKENKPLKEEKIVPKMAFKEPKPMSKEPKPDSNLLTITSGQDKKAPSKRPPISDSEELSAKKRKKSSSEALFKSFSSAPPLILTCSADKKQIKDKSHVKMGKVKIESETSEKKKSTLPPFDDIVDPNDSDVEENISSKSDSEQPSPASSSSSSSSSFTPSQTRQQGPLRSIMKDLHSDDNEEESDEVEDNDNDSEMERPVNRGGSRSRRVSLSDGSDSESSSASSPLHHEPPPPLLKTNNNQILEVKSPIKQSKSDKQIKNGECDKAYLDELVELHRRLMTLRERHILQQIVNLIEETGHFHITNTTFDFDLCSLDKTTVRKLQSYLETSGTS
partner: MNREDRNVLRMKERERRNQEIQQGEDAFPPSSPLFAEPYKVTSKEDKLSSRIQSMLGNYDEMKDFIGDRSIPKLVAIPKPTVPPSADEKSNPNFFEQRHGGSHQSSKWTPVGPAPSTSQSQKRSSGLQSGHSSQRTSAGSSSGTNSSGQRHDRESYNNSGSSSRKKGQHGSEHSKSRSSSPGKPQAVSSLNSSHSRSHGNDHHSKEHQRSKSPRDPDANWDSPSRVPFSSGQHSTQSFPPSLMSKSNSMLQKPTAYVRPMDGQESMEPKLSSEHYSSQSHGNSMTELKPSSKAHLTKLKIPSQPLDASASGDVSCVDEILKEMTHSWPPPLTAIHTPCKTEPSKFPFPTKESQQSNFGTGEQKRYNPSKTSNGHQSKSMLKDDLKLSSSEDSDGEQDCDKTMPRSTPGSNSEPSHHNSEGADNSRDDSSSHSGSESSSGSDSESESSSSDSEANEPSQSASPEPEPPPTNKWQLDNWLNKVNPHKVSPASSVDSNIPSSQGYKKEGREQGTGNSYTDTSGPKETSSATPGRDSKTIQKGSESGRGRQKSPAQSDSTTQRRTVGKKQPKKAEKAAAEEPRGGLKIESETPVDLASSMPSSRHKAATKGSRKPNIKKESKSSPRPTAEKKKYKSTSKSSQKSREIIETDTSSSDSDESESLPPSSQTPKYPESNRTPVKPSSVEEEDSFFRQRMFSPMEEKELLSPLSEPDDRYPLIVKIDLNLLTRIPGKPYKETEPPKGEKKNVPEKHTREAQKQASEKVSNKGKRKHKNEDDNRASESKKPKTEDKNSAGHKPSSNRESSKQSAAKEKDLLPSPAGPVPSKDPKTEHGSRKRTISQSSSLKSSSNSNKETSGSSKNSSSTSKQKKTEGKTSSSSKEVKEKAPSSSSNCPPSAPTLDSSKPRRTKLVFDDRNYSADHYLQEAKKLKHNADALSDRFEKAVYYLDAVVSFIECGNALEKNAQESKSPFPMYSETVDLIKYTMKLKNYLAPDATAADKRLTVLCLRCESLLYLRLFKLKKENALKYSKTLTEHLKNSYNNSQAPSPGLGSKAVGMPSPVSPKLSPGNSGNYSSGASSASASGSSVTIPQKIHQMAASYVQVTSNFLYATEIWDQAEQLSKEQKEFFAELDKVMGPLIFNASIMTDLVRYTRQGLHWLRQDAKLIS
B3: Protein ENL (Homo sapiens), Q03111 (parent)
chain: B1 chain
partner: B2 partner
B4: Protein AF-9 (Homo sapiens), P42568 (parent)
chain: B2 chain

Variants of: B1
Details: with dot1l_human DOT1L

Row | Variant | effect of a mutation on the interaction
1 | L550E | decreasing interaction

Variants of: B2
Details: with aff4_human AFF4, Q9UHB7

Row | Variant | effect of a mutation on the interaction
2 | L558E | decreasing interaction

Variants of: B3
Details: with aff4_human AFF4, Q9UHB7

Row | Variant | effect of a mutation on the interaction
3 | L550E | disrupting interaction

Variants of: B4
Details: with dot1l_human DOT1L

Row | Variant | effect of a mutation on the interaction
4 | L558E | decreasing interaction

Source: IntAct's records for PubMed 20153263
